Among the data in PMC11066147 are Kd, koff and kon values, retold here.

Where “and” joins values, the source holds several entries; their conditions need not be identical. Equal values may be shown once.

The target of assay [1] is PfHsp70-zLS (linker switch mutant of PfHsp70-z carrying the linker of canonical Hsp70) (Plasmodium falciparum) (UniProt Q8IC01). Kind of assay: SPR. In general terms: SPR reads the build-up and loss of mass on a sensor chip optically.
For assay [2], the target named is PfHsp70-1LS (linker switch mutant of PfHsp70-1 carrying the linker of PfHsp70-z) (Plasmodium falciparum) (UniProt Q8IB24). The assay is described as follows: SPR.

B1: Plasmodium falciparum Hsp110 (PfHsp70-z, PF3D7_0708800) (natural protein)
chain: MSVLGIDIGNDNSVVATINKGAINVVRNDISERLTPTLVGFTEKERLIGDSALSKLKSNYKNTCRNIKNLIGKIGTDVKDDIEIHEAYGDLIPCEYNYLGYEVEYKNEKVVFSAVRVLSALLSHLIKMAEKYIGKECKEIVLSYPPTFTNCQKECLLAATKIINANVLRIISDNTAVALDYGMYRMKEFKEDNGSLLVFVNIGYANTCVCVARFFSNKCEILCDIADSNLGGRNLDNELIKYITNIFVNNYKMNPLYKNNTPELCPMGTGRLNKFLVTSTASDQQNGINNKVRIKLQEVAIKTKKVLSANNEASIHVECLYEDLDCQGSINRETFEELCSNFFLTKLKHLLDTALCISKVNIQDIHSIEVLGGSTRVPFIQNFLQQYFQKPLSKTLIADESIARGCVLSAAMVSKHYKVKEYECVEKVTHPINVEWHNINDASKSNVEKLYTRDSLKKKVKKIVIPEKGHIKLTAYYENTPDLPSNCIKELGSCIVKINEKNDKIVESHVMTTFSNYDTFTFLGAQTVTKSVIKSKDEKKKADDKTEDKGEKKDAKDQEQNDDKDQTNDNNMNEKDTNDKKEKNNETNSPNKTELKKGEEGKVQTCYTTIPIETLLAQGSYSSKDIFNFSEQEINMQHSDILEGERLKHLNELETIIYESRSRLNGIYKNFVMDDERDRILLSLDDYENWLYDNIEENKNMFIKKKEEIRDLIKNIVQKFDVYNSKQQNLGNIINHLNNIITQCSNKPSDESQNIINRTTKFLNNINSLQEQEKNKPLYEPPVYTLNDIEAEFNEVTQLAQKFFSKLEVEELAKQKAKQEKEKEKEKEKEKEKEKEKNEETNLDANEEQNNEAKNNEEKENSTKNENSANPEE
On to B1, for which, in assay [1], the Kd was 3.17 nM and 2.79 nM and 1.84 nM; the koff was 4.15e-05 s⁻¹ and 4.36e-05 s⁻¹ and 5.32e-05 s⁻¹; the kon was 13100 M⁻¹ s⁻¹ and 23700 M⁻¹ s⁻¹ and 19100 M⁻¹ s⁻¹.

B2: PfHop (natural protein)
chain: MVNKEEAQRLKELGNKCFQEGKYEEAVKYFSDAITNDPLDHVLYSNLSGAFASLGRFYEALESANKCISIKKDWPKGYIRKGCAEHGLRQLSNAEKTYLEGLKIDPNNKSLQDALSKVRNENMLENAQLIAHLNNIIENDPQLKSYKEENSNYPHELLNTIKSINSNPMNIRIILSTCHPKISEGVEKFFGFKFTGEGNDAEERQRQQREEEERRKKKEEEERKKKEEEEMKKQNRTPEQIQGDEHKLKGNEFYKQKKFDEALKEYEEAIQINPNDIMYHYNKAAVHIEMKNYDKAVETCLYAIENRYNFKAEFIQVAKLYNRLAISYINMKKYDLAIEAYRKSLVEDNNRATRNALKELERRKEKEEKEAYIDPDKAEEHKNKGNEYFKNNDFPNAKKEYDEAIRRNPNDAKLYSNRAAALTKLIEYPSALEDVMKAIELDPTFVKAYSRKGNLHFFMKDYYKALQAYNKGLELDPNNKECLEGYQRCAFKIDEMSKSEKVDEEQFKKSMADPEIQQIISDPQFQIILQKLNENPNSISEYIKDPKIFNGLQKLIAAGILKVR
B2: the Kd in assay [2] was 27.7 nM and 10 nM and 37.6 nM.

As usually defined, the Kd is the equilibrium constant for the complex coming apart. Lower therefore signals higher affinity. In general, koff refers to the rate constant with which the complex falls apart. Read a high koff as fast dissociation. As a reminder, the kon is the rate constant with which the complex forms. A low value points to slow association.
